Source: patent US20130115678
Numbering of substitutions follows the chain as printed.

Columns and labels:
Experiment in all cases: cleavage_in_vitro
[1] = biological target: T1, PvuII (Proteus vulgaris) (UniProt P23657); settings: NEB4, 37 C, Mg2+; FI NEB1-3: 250, 16, 8
T1 sequence: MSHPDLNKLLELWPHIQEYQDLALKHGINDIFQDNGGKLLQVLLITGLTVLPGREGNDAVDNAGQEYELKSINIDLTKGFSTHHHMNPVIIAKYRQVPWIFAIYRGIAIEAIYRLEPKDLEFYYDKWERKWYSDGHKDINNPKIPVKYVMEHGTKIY

[2] = biological target: T2, PvuII-HF T46G (Proteus vulgaris) (UniProt P23657); settings: NEB4, 37 C, Mg2+; FI NEB1-3: >=250, >=2000, >=250
T2 sequence: T1 sequence with T46G

[3] = biological target: T3, SalI (Streptomyces albus G) (UniProt Q53608); settings: NEB4, 37 C, Mg2+; FI NEB1-3: 8, 1, 32
T3 sequence: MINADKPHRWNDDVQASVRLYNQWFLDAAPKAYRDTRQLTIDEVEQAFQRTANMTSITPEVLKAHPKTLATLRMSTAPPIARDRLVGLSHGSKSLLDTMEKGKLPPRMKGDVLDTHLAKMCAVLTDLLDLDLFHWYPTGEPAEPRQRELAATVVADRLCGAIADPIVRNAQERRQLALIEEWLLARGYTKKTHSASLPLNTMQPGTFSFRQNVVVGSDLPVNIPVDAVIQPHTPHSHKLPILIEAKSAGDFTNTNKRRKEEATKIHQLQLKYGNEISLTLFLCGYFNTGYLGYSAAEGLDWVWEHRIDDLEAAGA

[4] = biological target: T4, SalI-HF R107A (Streptomyces albus G) (UniProt Q53608); settings: NEB4, 37 C, Mg2+; FI NEB1-3: >=8000, >=64000, >=4000
T4 sequence: T3 sequence with R107A

[5] = test system: T5, BspQI-HF K279P/R388F (Bacillus sphaericus); settings: NEB4, 50 C, Mg2+; FI NEB1-3: >=1000, >=1000, >=64
T5 sequence: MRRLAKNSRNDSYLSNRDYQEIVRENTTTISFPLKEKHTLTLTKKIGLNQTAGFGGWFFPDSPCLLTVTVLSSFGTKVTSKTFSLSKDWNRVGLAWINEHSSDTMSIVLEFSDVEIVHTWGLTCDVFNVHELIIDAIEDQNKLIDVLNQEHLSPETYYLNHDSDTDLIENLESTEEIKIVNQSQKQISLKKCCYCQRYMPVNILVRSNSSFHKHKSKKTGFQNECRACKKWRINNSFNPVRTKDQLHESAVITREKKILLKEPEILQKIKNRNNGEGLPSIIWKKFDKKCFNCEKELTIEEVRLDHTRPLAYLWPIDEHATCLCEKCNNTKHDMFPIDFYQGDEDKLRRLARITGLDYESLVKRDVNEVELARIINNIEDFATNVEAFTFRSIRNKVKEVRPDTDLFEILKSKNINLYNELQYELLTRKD

[6] = test system: T6, AvrII (Anabaena variabilis); settings: NEB4, 37 C, Mg2+; FI NEB1-3: 64, 8, 32
T6 sequence: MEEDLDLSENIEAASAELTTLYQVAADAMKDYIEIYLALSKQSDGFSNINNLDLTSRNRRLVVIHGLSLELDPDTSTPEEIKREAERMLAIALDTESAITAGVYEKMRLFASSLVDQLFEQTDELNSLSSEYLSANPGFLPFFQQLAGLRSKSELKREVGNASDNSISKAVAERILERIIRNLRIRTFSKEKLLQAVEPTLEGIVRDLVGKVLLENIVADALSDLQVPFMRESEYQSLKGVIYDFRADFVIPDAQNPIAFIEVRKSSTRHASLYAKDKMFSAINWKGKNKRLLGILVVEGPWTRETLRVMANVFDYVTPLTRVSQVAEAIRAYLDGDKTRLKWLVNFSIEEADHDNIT

[7] = test system: T7, AvrII-HF Y104F (Anabaena variabilis); settings: NEB4, 37 C, Mg2+; FI NEB1-3: 500, >=500, >=16
T7 sequence: T6 sequence with Y104F

Substance: pBR322
- activity (fidelity index) [1]: 0.25
- activity (fidelity index) [2]: 500

Substance: HindIII-digested lambda DNA
- activity (fidelity index) [3]: 1
- activity (fidelity index) [4]: > 32000

Substance: pUC19
- activity (fidelity index) [5]: > 4000

Substance: T7 DNA
- activity (fidelity index) [6]: 32
- activity (fidelity index) [7]: > 1000
